Values of other authors, collected in paper PMC13200438 (Journal of Nanobiotechnology, 2026).

Settings: oral semaglutide (Rybelsus)

In the case of semaglutide, the “oral (absolute) bioavailability” value is given as less than 2%.
